# Experimental data taken from paper PMC3115021, “Dynamics of Cdk1 Substrate Specificity during the Cell Cycle” (Molecular Cell, 2011).
# B1: FIN1: spindle-stabilizing protein, tested as Cdk1 substrate (protein, UniProt Q03898 1-291, looked up)
# Filament protein FIN1: MSNKSNRRSLRDIGNTIGRNNIPSDKDNVFVRLSMSPLRTTSQKEFLKPPMRISPNKTDGMKHSIQVTPRRIMSPECLKGYVSKETQSLDRPQFKNSNKNVKIQNSDHITNIIFPTSPTKLTFSNENKIGGDGSLTRIRARFKNGLMSPERIQQQQQQHILPSDAKSNTDLCSNTELKDAPFENDLPRAKLKGKNLLVELKKEEEDVGNGIESLTKSNTKLNSMLANEGKIHKASFQKSVKFKLPDNIVTEETVELKEIKDLLLQMLRRQREIESRLSNIELQLTEIPKHK
# B2: YHP1: purified yeast protein tested as Cdk1 substrate (protein, UniProt Q04116 1-353, looked up)
# Homeobox protein YHP1: MESRNTVLPSLPNIITGTSNSPFQLHTLPNTNFPSDDQGDIRLPPLAASAHIVRPVVNIYKSPCDEERPKRKSPQAVDFLSQRVTTSMTPLSKPKKLSSHSPFTPTVRVCSKEQPPQSMHSYKKVNILTPLSAAKAVLTPTTRKEKKRSFAFITHSQETFPKKEPKIDNARLARRKRRRTSSYELGILQTAFDECPTPNKAKRIELSEQCNMSEKSVQIWFQNKRQAAKKHKNSGNTSHCKVHSNDSMSMISYSDAALEITSTPTSTKEAITAELLKTSPANTSSIFEDHHITPCKPGGQLKFHRKSVLVKRTLSNTGHSEIIKSPKGKENRLKFNAYERKPLGEVDLNSFKN
# B3: CDC6: replication factor and pre-RC component, tested as Cdk1 substrate (protein, UniProt P09119 1-513, looked up)
# Cell division control protein …: MSAIPITPTKRIRRNLFDDAPATPPRPLKRKKLQFTDVTPESSPEKLQFGSQSIFLRTKALLQKSSELVNLNSSDGALPARTAEYEQVMNFLAKAISEHRSDSLYITGPPGTGKTAQLDMIIRQKFQSLPLSLSTPRSKDVLRHTNPNLQNLSWFELPDGRLESVAVTSINCISLGEPSSIFQKIFDSFQDLNGPTLQIKNMQHLQKFLEPYHKKTTFVVVLDEMDRLLHANTSETQSVRTILELFLLAKLPTVSFVLIGMANSLDMKDRFLSRLNLDRGLLPQTIVFQPYTAEQMYEIVIQKMSSLPTIIFQPMAIKFAAKKCAGNTGDLRKLFDVLRGSIEIYELEKRFLLSPTRGSLNSAQVPLTPTTSPVKKSYPEPQGKIGLNYIAKVFSKFVNNNSTRTRIAKLNIQQKLILCTIIQSLKLNSDATIDESFDHYIKAITKTDTLAPLQRNEFLEICTILETCGLVSIKKTKCKGKTKRFVDKIDVDLDMREFYDEMTKISILKPFLH
# B4: CDH1: protein purified using the baculovirus system, tested as Cdk1 substrate (protein, UniProt P53197 1-566, looked up)
# APC/C activator protein CDH1: MSTNLNPFMNNTPSSSPLKGSESKRVSKRPISSSSSASLLSSPSRRSRPSTVYGDRYIPSRTDIDFNSIVSISSMASVPALNPSSTEDQVEYQKERQAHETYNTLLKNELFGEMLSKDTVGSESSIDRIKNTRPSTRGNVHAENTTRHGYELERVSTPPPEAAGLEEFSPHSTPVTPRRLFTSQQDEITRPSSNSVRGASLLTYQQRKGRRLSAASLLQSQFFDSMSPVRPDSKQLLLSPGKQFRQIAKVPYRVLDAPSLADDFYYSLIDWSSTDVLAVALGKSIFLTDNNTGDVVHLCDTENEYTSLSWIGAGSHLAVGQANGLVEIYDVMKRKCIRTLSGHIDRVACLSWNNHVLTSGSRDHRILHRDVRMPDPFFETIESHTQEVCGLKWNVADNKLASGGNDNVVHVYEGTSKSPILTFDEHKAAVKAMAWSPHKRGVLATGGGTADRRLKIWNVNTSIKMSDIDSGSQICNMVWSKNTNELVTSHGYSKYNLTLWDCNSMDPIAILKGHSFRVLHLTLSNDGTTVVSGAGDETLRYWKLFDKPKAKVQPNSLIFDAFNQIR
# B5: FAR1: Cdk1 inhibitor Far1, tested as Cdk1 substrate (protein, UniProt P21268 1-830, looked up)
# Cyclin-dependent kinase …: MKTPTRVSFEKKIHTPPSGDRDAERSPPKKFLRGLSGKVFRKTPEFKKQQMPTFGYIEESQFTPNLGLMMSKRGNIPKPLNLSKPISPPPSLKKTAGSVASGFSKTGQLSALQSPVNITSSNKYNIKATNLTTSLLRESISDSTTMCDTLSDINLTVMDEDYRIDGDSYYEEDSPTFMISLERNIKKCNSQFSPKRYIGEKCLICEESISSTFTGEKVVESTCSHTSHYNCYLMLFETLYFQGKFPECKICGEVSKPKDKDIVPEMVSKLLTGAGAHDDGPSSNMQQQWIDLKTARSFTGEFPQFTPQEQLIRTADISCDGFRTPRLSNSNQFEAVSYLDSPFLNSPFVNKMATTDPFDLSDDEKLDCDDEIDESAAEVWFSKTGGEHVMVSVKFQEMRTSDDLGVLQDVNHVDHEELEEREKEWKKKIDQYIETNVDKDSEFGSLILFDKLMYSDDGEQWVDNNLVILFSKFLVLFDFEEMKILGKIPRDQFYQVIKFNEDVLLCSLKSTNIPEIYLRFNENCEKWLLPKWKYCLENSSLETLPLSEIVSTVKELSHVNIIGALGAPPDVISAQSHDSRLPWKRLHSDTPLKLIVCLNLSHADGELYRKRVLKSVHQILDGLNTDDLLGIVVVGRDGSGVVGPFGTFIGMINKNWDGWTTFLDNLEVVNPNVFRDEKQQYKVTLQTCERLASTSAYVDTDDHIATGYAKQILVLNGSDVVDIEHDQKLKKAFDQLSYHWRYEISQRRMTPLNASIKQFLEELHTKRYLDVTLRLPQATFEQVYLGDMAAGEQKTRLIMDEHPHSSLIEIEYFDLVKQQRIHQTLEVPNL
# B6: EXO84: purified yeast protein tested as Cdk1 substrate (protein, UniProt P38261 1-753, looked up)
# Exocyst complex component …: MVEFSLKKARNNWKHVKKSASSPAKQKTPPSPAKPKQKTKKNPYSDLKDPATSYTLPTINARERSRVATSMQRRLSIHNTNYAPPTLDYSMPLPDMPNMIVPNDNVDSSHNNSSFTTENESVSSKGPSNSLNLSTADLSLNDSSYNKVPARSAMRNTVNPSGSNDPFNNSTSLRKMLANPHFNAKDFVHDKLGNASAITIDKFTSNLTDLSIQVQEEVKLNINKSYNEIMTVNNDLNVAMLELKRVRANINDLNEVLDQCTKIAEKRLQLQDQIDQERQGNFNNVESHSNSPALLPPLKAGQNGNLMRRDRSSVLILEKFWDTELDQLFKNVEGAQKFINSTKGRHILMNSANWMELNTTTGKPLQMVQIFILNDLVLIADKSRDKQNDFIVSQCYPLKDVTVTQEEFSTKRLLFKFSNSNSSLYECRDADECSRLLDVIRKAKDDLCDIFHVEEENSKRIRESFRYLQSTQQTPGRENNRSPNKNKRRSMGGSITPGRNVTGAMDQYLLQNLTLSMHSRPRSRDMSSTAQRLKFLDEGVEEIDIELARLRFESAVETLLDIESQLEDLSERISDEELMLLNLISLKIEQRREAISSKLSQSILSSNEIVHLKSGTENMIKLGLPEQALDLFLQNRSNFIQDLILQIGSVDNPTNYLTQLAVIRFQTIKKTVEDFQDIFKELGAKISSILVDWCSDEVDNHFKLIDKQLLNDEMLSPGSIKSSRKQIDGLKAVGLDFVYKLDEFIKKNSDKIR
# What was measured:
# Test in all cases: Quantitative phosphorylation assay of T33-Sic1ΔC constructs and recombinant substrates
# Format in all cases: biochemical
# Settings in all cases: Table S2; purified protein substrate; relative values, not divided by [S]
# Clb2-Cdk1 = molecular target: T1, Clb2-Cdk1 (Saccharomyces cerevisiae, UniProt P00546+P24869)
# T1 construct: We purified the four cyclin-Cdk1 complexes from yeast; made in house; host or cells: S. cerevisiae strain DOM0077 (gal-CLB2-TAP, sic1 deleted); Cks1 from bacteria
# Clb3-Cdk1 = molecular target: T2, Clb3-Cdk1 (Saccharomyces cerevisiae, UniProt P00546+P24870)
# T2 construct: We purified the four cyclin-Cdk1 complexes from yeast; made in house; host or cells: S. cerevisiae strain DOM0957 (gal-CLB3-TAP, sic1 deleted); Cks1 from bacteria
# Clb5-Cdk1 = molecular target: T3, Clb5-Cdk1 (Saccharomyces cerevisiae, UniProt P00546+P30283)
# T3 construct: We purified the four cyclin-Cdk1 complexes from yeast; made in house; host or cells: S. cerevisiae strain DOM0076 (gal-CLB5-TAP, sic1 deleted); Cks1 from bacteria
# Cln2-Cdk1 = molecular target: T4, Cln2-Cdk1 (Saccharomyces cerevisiae, UniProt P00546+P20438)
# T4 construct: We purified the four cyclin-Cdk1 complexes from yeast; made in house; host or cells: S. cerevisiae strain DMY305 (galactose-induced); Cks1 from bacteria
# Clb2hpm-Cdk1 = molecular target: T5, Clb2hpm-Cdk1 (Saccharomyces cerevisiae, UniProt P00546)
# T5 construct: made in house; host or cells: S. cerevisiae strain DOM0964 (gal-CLB2hpm-TAP, sic1 deleted); Cks1 from bacteria
# Method in brief: (§1)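 Yeast cyclin-Cdk1 complexes (1–10 nM, TAP-purified) phosphorylated 6His-T33-Sic1ΔC (other S/T-P sites mutated to Ala-Ala) or recombinant substrates at 0.5–2 μM, below KM, with 32P-γ-ATP. Initial velocities (≤10% turnover) from two or more time points, SDS-PAGE stopped; relative kcat/KM from v0 ratios.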
# Clb3hpm-Cdk1 = molecular target: T6, Clb3hpm-Cdk1 (Saccharomyces cerevisiae, UniProt P00546+P24870)
# T6 construct: made in house; host or cells: S. cerevisiae strain MK0168 (gal-CLB3hpm-TAP, sic1 deleted); Cks1 from bacteria
# Method in brief: as §1
# Clb5hpm-Cdk1 = molecular target: T7, Clb5hpm-Cdk1 (Saccharomyces cerevisiae, UniProt P00546)
# T7 construct: made in house; host or cells: S. cerevisiae strain DOM0963 (gal-CLB5hpm-TAP, sic1 deleted); Cks1 from bacteria
# Method in brief: as §1
# T2 sequence (P00546 2-298 limits assumed): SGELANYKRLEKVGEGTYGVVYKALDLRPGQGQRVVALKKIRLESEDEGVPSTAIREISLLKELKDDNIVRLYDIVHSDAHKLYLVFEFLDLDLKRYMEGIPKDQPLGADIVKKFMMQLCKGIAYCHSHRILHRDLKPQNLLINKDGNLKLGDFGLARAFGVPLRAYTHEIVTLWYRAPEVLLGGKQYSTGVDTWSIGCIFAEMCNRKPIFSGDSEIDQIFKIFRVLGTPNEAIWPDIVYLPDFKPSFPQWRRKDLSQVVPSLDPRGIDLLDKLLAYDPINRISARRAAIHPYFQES
# T2 sequence (P24870 whole entry partner): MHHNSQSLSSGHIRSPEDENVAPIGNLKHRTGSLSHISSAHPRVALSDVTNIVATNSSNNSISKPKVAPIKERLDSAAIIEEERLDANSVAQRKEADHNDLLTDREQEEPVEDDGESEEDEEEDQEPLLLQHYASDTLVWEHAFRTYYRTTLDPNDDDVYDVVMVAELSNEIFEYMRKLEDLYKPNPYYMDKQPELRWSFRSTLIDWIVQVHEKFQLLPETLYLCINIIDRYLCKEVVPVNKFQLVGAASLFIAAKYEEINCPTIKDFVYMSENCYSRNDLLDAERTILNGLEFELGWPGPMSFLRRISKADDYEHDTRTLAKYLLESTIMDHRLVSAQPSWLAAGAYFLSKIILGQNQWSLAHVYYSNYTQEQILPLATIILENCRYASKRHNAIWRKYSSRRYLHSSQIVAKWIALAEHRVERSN
# T2 sequence (P20486 whole entry partner): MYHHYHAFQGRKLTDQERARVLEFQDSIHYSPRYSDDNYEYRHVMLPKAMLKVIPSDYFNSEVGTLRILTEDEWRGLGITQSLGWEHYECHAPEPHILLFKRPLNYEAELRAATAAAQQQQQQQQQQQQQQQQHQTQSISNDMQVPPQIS
# T3 sequence (P00546 2-298 limits assumed): as the sequence (P00546 2-298 limits assumed) above
# T3 sequence (P30283 whole entry partner): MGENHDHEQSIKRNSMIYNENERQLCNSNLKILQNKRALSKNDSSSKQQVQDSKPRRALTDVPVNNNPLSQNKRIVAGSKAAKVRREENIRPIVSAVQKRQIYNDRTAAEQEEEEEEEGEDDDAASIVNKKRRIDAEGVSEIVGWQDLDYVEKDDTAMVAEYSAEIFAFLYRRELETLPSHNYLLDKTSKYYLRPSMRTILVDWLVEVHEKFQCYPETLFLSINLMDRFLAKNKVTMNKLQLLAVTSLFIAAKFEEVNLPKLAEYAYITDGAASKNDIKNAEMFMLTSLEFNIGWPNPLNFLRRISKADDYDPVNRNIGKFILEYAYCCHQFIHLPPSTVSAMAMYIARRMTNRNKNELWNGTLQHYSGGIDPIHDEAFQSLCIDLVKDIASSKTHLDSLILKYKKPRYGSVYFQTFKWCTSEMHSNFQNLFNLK
# T3 sequence (P20486 whole entry partner): as the sequence (P20486 whole entry partner) above
# T4 sequence (P00546 2-298 limits assumed): as the sequence (P00546 2-298 limits assumed) above
# T4 sequence (P20438 whole entry partner): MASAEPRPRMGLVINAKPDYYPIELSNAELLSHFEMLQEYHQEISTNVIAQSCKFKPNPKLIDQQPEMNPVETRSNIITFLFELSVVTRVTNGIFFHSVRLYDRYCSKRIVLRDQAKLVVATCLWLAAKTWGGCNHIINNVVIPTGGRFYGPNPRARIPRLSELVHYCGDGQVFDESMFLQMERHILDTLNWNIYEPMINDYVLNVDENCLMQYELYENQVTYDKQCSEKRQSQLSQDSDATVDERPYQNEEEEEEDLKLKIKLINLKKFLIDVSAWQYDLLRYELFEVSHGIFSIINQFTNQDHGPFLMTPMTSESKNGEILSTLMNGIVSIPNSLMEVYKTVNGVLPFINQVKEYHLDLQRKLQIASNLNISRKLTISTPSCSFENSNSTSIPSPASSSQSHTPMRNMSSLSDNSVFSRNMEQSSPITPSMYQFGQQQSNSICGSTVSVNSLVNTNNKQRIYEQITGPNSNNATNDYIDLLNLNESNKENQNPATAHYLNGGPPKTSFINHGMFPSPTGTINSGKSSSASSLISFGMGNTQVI
# T4 sequence (P20486 whole entry partner): as the sequence (P20486 whole entry partner) above
# T5 sequence (P00546 2-298 limits assumed): as the sequence (P00546 2-298 limits assumed) above
# T7 sequence (P00546 2-298 limits assumed): as above
# T1 sequence (P00546 2-298 limits assumed): as above
# T1 sequence (P24869 2-491 partner limits assumed): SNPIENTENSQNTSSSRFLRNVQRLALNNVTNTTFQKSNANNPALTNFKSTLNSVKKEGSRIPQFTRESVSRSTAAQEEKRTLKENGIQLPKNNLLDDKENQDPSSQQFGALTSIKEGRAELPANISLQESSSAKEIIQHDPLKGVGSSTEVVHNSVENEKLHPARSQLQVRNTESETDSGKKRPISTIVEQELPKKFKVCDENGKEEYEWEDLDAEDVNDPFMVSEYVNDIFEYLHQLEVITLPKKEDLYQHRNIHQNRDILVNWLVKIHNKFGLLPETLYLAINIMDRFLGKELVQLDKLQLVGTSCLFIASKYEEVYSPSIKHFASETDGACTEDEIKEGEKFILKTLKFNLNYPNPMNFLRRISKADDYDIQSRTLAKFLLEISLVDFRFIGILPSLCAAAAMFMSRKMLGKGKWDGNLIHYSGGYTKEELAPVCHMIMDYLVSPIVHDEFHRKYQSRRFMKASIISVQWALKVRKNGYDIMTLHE
# T1 sequence (P20486 whole entry partner): as the sequence (P20486 whole entry partner) above
Molecule,"kcat/KM, Clb2 (Clb2-Cdk1) [relative units]","kcat/KM, Clb3 (Clb3-Cdk1) [relative units]","kcat/KM, Clb5 (Clb5-Cdk1) [relative units]","kcat/KM, Cln2 (Cln2-Cdk1) [relative units]","kcat/KM, Clb2hpm (Clb2hpm-Cdk1) [relative units]","kcat/KM, Clb3hpm (Clb3hpm-Cdk1) [relative units]","kcat/KM, Clb5hpm (Clb5hpm-Cdk1) [relative units]"
B1,12.43,10.96,23.02,1.800,14.08,7.488,3.651
B2,0.385,0.066,0.020,0.524,0.046,0.009,0.002
B3,0.078,2.268,2.898,0.084,1.688,0.350,0.138
B4,0.035,0.024,0.025,0.016,0.023,0.008,0.006
B5,0.029,0.031,0.115,0.042,0.033,0.008,0.003
B6,0.074,0.031,0.019,0.084,0.062,0.014,0.006
